The values that follow are results of earlier work, collected in paper PMC7509490.

For this data set, the target named is G-actin (Oryctolagus cuniculus) (UniProt P68135).

For orientation: Kd means the free concentration of one partner at which half of the binding sites on the other are occupied at equilibrium, for simple one-to-one binding. As to Profilin (from UniProt P07274), the Kd was 0.2 µM.
